The record followed here is patent publication US5624900A, “Peptide or its salts” (Kuraray Co., Ltd., priority 1990, dated 1997).

Non-standard residues stand in square brackets, D forms with d. Nle = CCCC[C@H](N)C(=O)O

T1 sequence (P01584 117-269): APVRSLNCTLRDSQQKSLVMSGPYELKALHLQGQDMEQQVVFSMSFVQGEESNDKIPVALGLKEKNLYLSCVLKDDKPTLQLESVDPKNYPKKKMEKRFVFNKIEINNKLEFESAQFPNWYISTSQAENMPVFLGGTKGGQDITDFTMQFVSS

The assay has as its target T1, human IL-1β (Homo sapiens, UniProt P01584).
T1 construct: purchased Amersham Japan
In words: Binding activity for human IL-1: 125I-labelled human IL-1β retained on peptide-immobilized cellulose adsorbent. As to conditions: radioactivity remaining on 100 mg adsorbent (1 mg peptide fixed per g cellulose) after about 300 Bq 125I-labelled human IL-1β, room temperature 3 hours, 5 washes; γ counter. As for the experimental part: Adsorbents each having fixed 1 mg of one of the peptides obtained in Examples 1 through 15 and the Comparative Example were prepared as follows. One gram of a granular cellulose (CM-CELLULOFINE CH, available from Seikagaku Kogyo Co., Ltd.) is suspended in 5 ml of dioxane purified by distillation in the presence of sodium metal. To the suspension thus obtained was added 0.05 g of N-hydroxysuccinimide and 0.1 g of dicyclohexylcarbodimide, and the mixture was shaken at a room temperature for 1 night. The mixture thus obtained was washed with a 0.02 mole/l phosphate buffer (pH: 7.4) and then filtered with suction. The granules thus obtained were mixed with 1 ml of 0.02 mol/l phosphate buffer or purified water containing 1 mg of each one of the peptides obtained in Examples 1 through 15 and the Comparative Example. The mixtures were shaken overnight at a temperature of 4° C. and filtered with suction.
From the thus prepared adsorbents, 100 mg each was weighed, and thereto was added 100 μl of 5% solution of bovine serum albumin in PBS (a 10 mM phosphate buffer solution containing 0.15M NaCl, pH: 7.4). The mixtures were incubated overnight at 4° C., then about 300 Bq of ^125 I-labelled human IL-1β (purchased from Amersham Japan) was added to them and the mixtures were incubated at a room temperature for 3 hours. The reaction mixtures thus obtained were washed 5 times with Tris buffer containing 0.2% of Triton X-100 and then tested for radioactivity remaining on the adsorbents with a γ counter.
`NCC(=O)O` [Reference Example, glycine, reference compound]: the “Radioactivity (cpm)” value is 45 cpm.
The same measure for H-CLRIKIS-OH [Example 6]: 815 cpm; for “H-Cys-Leu-Gln-Ile-Lys-Ile-Ser-OH (H-CLQIKIS-OH) [Example 8]”: 678 cpm.
“H-K[Nle]C[Nle]R[Nle]Q[Nle]S-OH [Example 11]”: the “Radioactivity (cpm)” value is on record as 1292 cpm.
As to “H-Lys-Asn-Ser-Ser-Tyr-Cys-Leu-Arg-Ile-Lys-Ile-Ser-Ala-Lys-Phe-Val-Glu-OH (H-KNSSYCLRIKISAKFVE-OH) [Example 2]”, the “Radioactivity (cpm)” value came out at 764 cpm.
On to “H-Lys-Cys-Leu-Arg-Ile-Lys-Ile-Ser-OH (H-KCLRIKIS-OH) [Example 7]”, for which the “Radioactivity (cpm)” value is recorded as 576 cpm.
Consider “H-Lys-Cys-Leu-Gln-Ile-Gln-Ile-Ser-OH (H-KCLQIQIS-OH) [Example 9]”, for which the “Radioactivity (cpm)” value came out at 1100 cpm.
On to “H-Lys-Cys-Val-Gln-Val-Gln-Val-Ser-OH (H-KCVQVQVS-OH) [Example 14]”, for which the “Radioactivity (cpm)” value is listed as 890 cpm.
As to “H-Lys-Ile-Cys-Ile-Arg-Ile-Gln-Ile-Ser-NH2 (H-KICIRIQIS-NH2) [Example 15]”, the “Radioactivity (cpm)” value is given as 1427 cpm.
Take “H-Lys-Ile-Cys-Ile-Arg-Ile-Gln-Ile-Ser-OH (H-KICIRIQIS-OH) [Example 10]”: the “Radioactivity (cpm)” value was determined as 1373 cpm.
The same measure for “H-Lys-Ile-Cys-Ile-His-Ile-Gln-Ile-Ser-OH (H-KICIHIQIS-OH) [Example 12]”: 1167 cpm; for “H-Lys-Ile-Cys-Leu-Arg-Ile-Gln-Ile-Ser-OH (H-KICLRIQIS-OH) [Example 13]”: 1245 cpm.
As to “H-Lys-Tyr-Cys-Leu-Arg-Ile-Lys-Ile-Ser-Ala-Lys-Phe-Val-Glu-Asn-Glu-Pro-OH (H-KYCLRIKISAKFVENEP-OH) [Example 3]”, the “Radioactivity (cpm)” value stood at 1171 cpm.
For the compound “H-Tyr-Cys-Leu-Arg-Ile-Lys-Ile-Ser-Ala-Lys-OH (H-YCLRIKISAK-OH) [Example 4]”, the “Radioactivity (cpm)” value came to 891 cpm.
“H-Tyr-Cys-Leu-Arg-Ile-Lys-Ile-Ser-OH (H-YCLRIKIS-OH) [Example 5]”: the “Radioactivity (cpm)” value is recorded as 840 cpm.
Under “H-Tyr-Ser-Leu-Glu-Ile-Lys-Ile-Ser-OH (H-YSLEIKIS-OH) [Comparative Example, reference compound]” stands 84 cpm; under “H-Val-Val-Arg-Asn-Ser-Ser-Tyr-Cys-Leu-Arg-Ile-Lys-Ile-Ser-Ala-Lys-OH (H-VVRNSSYCLRIKISAK-OH) [Example 1]”, 922 cpm.
